In publication PMC4752221, “Nuclear Export of Pre-Ribosomal Subunits Requires Dbp5, but Not as an RNA-Helicase as for mRNA Export” (PLoS ONE, 2016):

Biological target: T1, His-Mtr2+Mex67 heterodimer (S. cerevisiae, UniProt Q99257 1-599; P34232 1-184)
T1 construct: Mex67 of S. cerevisiae, co-expressed with His-Mtr2; Mtr2 of S. cerevisiae, His-tagged; also called His-Mtr2 and Mex67; Mex67-Mtr2; source: E. coli BL21 DE3, co-expressed, purified (Ni-NTA agarose)
T1 sequence (looked up) 1: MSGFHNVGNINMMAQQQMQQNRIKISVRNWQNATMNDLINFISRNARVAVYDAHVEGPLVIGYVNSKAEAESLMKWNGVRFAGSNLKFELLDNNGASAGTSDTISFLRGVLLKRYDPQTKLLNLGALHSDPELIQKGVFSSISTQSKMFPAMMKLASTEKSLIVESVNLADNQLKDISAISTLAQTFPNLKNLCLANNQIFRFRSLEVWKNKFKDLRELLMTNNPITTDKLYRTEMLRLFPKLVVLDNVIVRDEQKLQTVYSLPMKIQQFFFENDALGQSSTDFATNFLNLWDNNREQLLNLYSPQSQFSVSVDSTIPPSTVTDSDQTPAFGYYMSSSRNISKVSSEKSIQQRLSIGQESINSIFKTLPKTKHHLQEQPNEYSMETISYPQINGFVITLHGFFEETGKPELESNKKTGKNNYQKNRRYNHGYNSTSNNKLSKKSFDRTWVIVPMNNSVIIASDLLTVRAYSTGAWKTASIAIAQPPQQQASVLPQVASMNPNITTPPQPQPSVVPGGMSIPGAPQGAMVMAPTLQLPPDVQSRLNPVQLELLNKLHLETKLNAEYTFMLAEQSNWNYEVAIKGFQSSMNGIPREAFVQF
T1 sequence (looked up) 2: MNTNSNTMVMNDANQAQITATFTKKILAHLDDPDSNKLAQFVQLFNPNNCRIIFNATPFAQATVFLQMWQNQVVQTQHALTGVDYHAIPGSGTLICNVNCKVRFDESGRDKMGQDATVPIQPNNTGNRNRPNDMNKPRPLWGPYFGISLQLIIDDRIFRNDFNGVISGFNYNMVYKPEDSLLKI
Experiment: pull-down; 100 μg purified GST-Dbp5 (mixed with bacterial lysate) held on Glutathione Sepharose 4B beads, washed, then 28 μg purified His-Mtr2+Mex67 added, 1 h at 4°C; 20 mM HEPES pH7.5, 100 mM NaCl, 4 mM MgCl2, 10% Glycerol, 0.1% NP-40, 1 mM DTT; with or without 1 mM ATP and 0.2 mg/ml RNase A (binding increased by ATP, not influenced by RNase A); Western blot and Coomassie
Settings: both partners purified

B1: GST-Dbp5 (natural protein, S. cerevisiae, UniProt P20449 1-482, looked up)
chain: MSDTKRDPADLLASLKIDNEKEDTSEVSTKETVKSQPEKTADSIKPAEKLVPKVEEKKTKQEDSNLISSEYEVKVKLADIQADPNSPLYSAKSFDELGLAPELLKGIYAMKFQKPSKIQERALPLLLHNPPRNMIAQSQSGTGKTAAFSLTMLTRVNPEDASPQAICLAPSRELARQTLEVVQEMGKFTKITSQLIVPDSFEKNKQINAQVIVGTPGTVLDLMRRKLMQLQKIKIFVLDEADNMLDQQGLGDQCIRVKRFLPKDTQLVLFSATFADAVRQYAKKIVPNANTLELQTNEVNVDAIKQLYMDCKNEADKFDVLTELYGLMTIGSSIIFVATKKTANVLYGKLKSEGHEVSILHGDLQTQERDRLIDDFREGRSKVLITTNVLARGIDIPTVSMVVNYDLPTLANGQADPATYIHRIGRTGRFGRKGVAISFVHDKNSFNILSAIQKYFGDIEMTRVPTDDWDEVEKIVKKVLKD
notes: Dbp5 (Rat8) of S. cerevisiae, GST-tagged, DBP5 in a pGEX backbone; also called recombinant GST-tagged Dbp5; source: E. coli Rosetta 2, purified (GSTrap 4B Glutathione Sepharose)
Question: Does B1 bind?
Answer: binds
